Key:
[1] = target: AtmtSSB2 (Arabidopsis thaliana); assay: SEC
[2] = target: exonuclease deficient AtPolIB (AtPolIB exo-) (Arabidopsis thaliana); assay: SEC-MALS
[3] = target: AtmtSSB1 (Arabidopsis thaliana); assay: SEC
[4] = target: exonuclease deficient AtPolIB (AtPolIB exo-) (Arabidopsis thaliana); assay: MST
SEC = target: the molecule itself; assay: SEC
AtmtSSB1 [5] = target: T1, AtmtSSB1 (Arabidopsis thaliana, UniProt Q84J78 33-201); assay: fluorescence anisotropy
T1 sequence: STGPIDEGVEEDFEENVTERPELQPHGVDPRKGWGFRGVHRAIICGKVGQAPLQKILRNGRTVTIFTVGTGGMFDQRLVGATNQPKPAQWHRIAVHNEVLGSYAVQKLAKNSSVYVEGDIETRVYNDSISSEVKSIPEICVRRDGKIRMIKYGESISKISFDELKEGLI

AtmtSSB1 [6] = target: T1, AtmtSSB1; assay: fluorescence anisotropy; remark: listed apart in the source

## AtmtSSB2 (natural protein)
[1]
  stoichiometry N: 4

## exonuclease deficient AtPolIB (AtPolIB exo-) (enzyme)
[2]
  stoichiometry N: 2

## AtmtSSB1 (natural protein)
[3]
  stoichiometry N: 4
[4]
  Kd: 1480 nM

B1: AtOSB3 (natural protein, Arabidopsis thaliana, UniProt Q8GWJ4 62-440, looked up)
chain: VATEKESTPPKKIEYKPEISNWINLIGFVEQPVQFGPCSDGKFWAGTVISQRSGSKSSNFWIPIIFEGDLAKIAVQHVKKEDRIHVSGKLFIDSPPPNVTYSQSNVQVMVQNLNFVQAATSTTKTISPPEKEVTSIKKKPARSKKVKVIDEETSNSWKHLIENPKEWLDHRGNKANGLVKPGHPDFKMKVGGLSLWLSTAPDWALLKLEELKFDVLVPKGNIKLNQLKGEESWKDLVQNPDKWLDNRSDKTNVKYPDFKHKETGEALWMTNSPIWVLSKLPPLKKNQERPFMSNKVSQLELDVEVPKGNLKQLKREEIWKNLVENPSKWWDNRLDKRNPKGPDFKHKETGEALWIGDSPTWALSKLPPLKKNQERPVMA
SEC
  stoichiometry N: 4

B2: AtOSB2 (natural protein, Arabidopsis thaliana, UniProt Q8GXH3 21-371, looked up)
chain: ASEITTGKRITSPQIRLYTAAAVGGKTGNGERKQRAKAPAKTPEAVTPVKPLEIASVTATTENELPRPNEIAYESEVANWVNLIGFVDQPVQFEASSDGKFWAGTVISQRSASDSSGFWIPIIFEGDLAKTAARYVSKDDQIHVSGKLFIDSPPPNMTYAQANVQVLVQNLNFIQPMSPSPSPFMVMSSSEKEESGIKKQPARAKQDIVIDEASDSWNHLIENPKEWWDHRENKVNGLVKPRHPDFKSKDSSFSLWLNKAPNWVLPKLEGLEFDVLVPKARVVKQLKGEESWKDLVQNPDKWWDNRIDKRNAKAPDFKHKETGEALWLNESPTWVLPKLPPVKKKQESIVF
SEC
  stoichiometry N: 4

B3: pssDNA-10 (Cy3) (mixed)
DNA 1: AACACTGTGAGCTTAGAGCCCCGGGG
DNA 2: CTAAGCTCACAGTGTT
AtmtSSB1 [5]
  binding result: no binding

B4: AtWhirly2 (natural protein, Arabidopsis thaliana, UniProt Q8VYF7 30-238, looked up)
chain: ASWSNSSTPGRGFPGKDAAKPSGRLFAPYSIFKGKAALSVEPVLPSFTEIDSGNLRIDRRGSLMMTFMPAIGERKYDWEKKQKFALSPTEVGSLISMGSKDSSEFFHDPSMKSSNAGQVRKSLSVKPHADGSGYFISLSVNNSILKTNDYFVVPVTKAEFAVMKTAFSFALPHIMGWNRLTGHVNTEALPSRNVSHLKTEPQLELEWDK
SEC
  stoichiometry N: 4
[4]
  Kd: > 250000 nM

## TTTTTTTTTTTTTTTTTTTTTTTTTTTTTTTTTTTTTTTTTTTTT (ssDNA) [ssDNA(45), Poly-T 45]
AtmtSSB1 [6]
  Kd: 62.8 ± 3.6 nM
